Assay results as given in patent publication US20070265199A1 (UNIVERSITY OF ROCHESTER, published 2007).

What was measured:
factor IXaβ [1] = molecular target: T1, factor IXaβ (UniProt P00740 47-191; P00740 227-461); experiment: factor Xa generation assay on phospholipid vesicles, factor IXa titrated with factor VIIIa
T1 construct: Bought reagent
Procedure: (§1) Factor VIII cofactor activity, factor IXa-factor VIIIa affinity, and kinetic parameters were determined using factor Xa generation assays. Reactions were performed in the presence of either phospholipid vesicles, non-activated platelets, or platelets activated by SFLLRN-amide (50 μM).

factor IXaβ [2] = molecular target: T1, factor IXaβ; experiment: factor Xa generation assay on non-activated platelets, factor IXa titrated with factor VIIIa
Procedure: as §1

factor IXaβ [3] = molecular target: T1, factor IXaβ; experiment: factor Xa generation assay on activated platelets (SFLLRN-amide), factor IXa titrated with factor VIIIa
Procedure: as §1

T1 sequence (P00740 47-191 limits assumed, form in doubt, chain 1 of 2): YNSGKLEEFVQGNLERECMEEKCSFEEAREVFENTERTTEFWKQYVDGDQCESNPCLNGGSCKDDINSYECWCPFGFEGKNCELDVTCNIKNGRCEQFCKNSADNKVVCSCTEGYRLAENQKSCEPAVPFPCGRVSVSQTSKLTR
T1 sequence (P00740 227-461 limits assumed, form in doubt, chain 2 of 2): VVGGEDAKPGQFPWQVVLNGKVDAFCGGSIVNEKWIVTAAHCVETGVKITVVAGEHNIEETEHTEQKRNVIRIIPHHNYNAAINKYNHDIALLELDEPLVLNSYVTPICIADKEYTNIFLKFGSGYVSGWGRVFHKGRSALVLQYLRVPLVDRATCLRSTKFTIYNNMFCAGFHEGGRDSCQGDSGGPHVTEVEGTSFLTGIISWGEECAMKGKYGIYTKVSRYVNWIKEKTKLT

Kd (factor IXaβ [1]): 5 nM | Kd (factor IXaβ [2]): 5.7 nM | Kd (factor IXaβ [3]): 6 nM
B1: factor VIIIa E113A (thrombin-activated B-domainless factor VIII bearing Glu113Ala) (other)
chain 1: ATRRYYLGAVELSWDYMQSDLGELPVDARFPPRVPKSFPFNTSVVYKKTLFVEFTVHLFNIAKPRPPWMGLLGPTIQAEVYDTVVITLKNMASHPVSLHAVGVSYWKASEGAAYDDQTSQREKEDDKVFPGGSHTYVWQVLKENGPMASDPLCLTYSYLSHVDLVKDLNSGLIGALLVCREGSLAKEKTQTLHKFILLFAVFDEGKSWHSETKNSLMQDRDAASARAWPKMHTVNGYVNRSLPGLIGCHRKSVYWHVIGMGTTPEVHSIFLEGHTFLVRNHRQASLEISPITFLTAQTLLMDLGQFLLFCHISSHQHDGMEAYVKVDSCPEEPQLRMKNNEEAEDYDDDLTDSEMDVVRFDDDNSPSFIQIR
chain 2: SVAKKHPKTWVHYIAAEEEDWDYAPLVLAPDDRSYKSQYLNNGPQRIGRKYKKVRFMAYTDETFKTREAIQHESGILGPLLYGEVGDTLLIIFKNQASRPYNIYPHGITDVRPLYSRRLPKGVKHLKDFPILPGEIFKYKWTVTVEDGPTKSDPRCLTRYYSSFVNMERDLASGLIGPLLICYKESVDQRGNQIMSDKRNVILFSVFDENRSWYLTENIQRFLPNPAGVQLEDPEFQASNIMHSINGYVFDSLQLSVCLHEVAYWYILSIGAQTDFLSVFFSGYTFKHKMVYEDTLTLFPFSGETVFMSMENPGLWILGCHNSDFRNRGMTALLKVSSCDKNTGDYYEDSYEDISAYLLSKNNAIEPR
chain 3: SFQKKTRHYFIAAVERLWDYGMSSSPHVLRNRAQSGSVPQFKKVVFQEFTDGSFTQPLYRGELNEHLGLLGPYIRAEVEDNIMVTFRNQASRPYSFYSSLISYEEDQRQGAEPRKNFVKPNETKTYFWKVQHHMAPTKDEFDCKAWAYFSDVDLEKDVHSGLIGPLLVCHTNTLNPAHGRQVTVQEFALFFTIFDETKSWYFTENMERNCRAPCNIQMEDPTFKENYRFHAINGYIMDTLPGLVMAQDQRIRWYLLSMGSNENIHSIHFSGHVFTVRKKEEYKMALYNLYPGVFETVEMLPSKAGIWRVECLIGEHLHAGMSTLFLVYSNKCQTPLGMASGHIRDFQITASGQYGQWAPKLARLHYSGSINAWSTKEPFSWIKVDLLAPMIIHGIKTQGARQKFSSLYISQFIIMYSLDGKKWQTYRGNSTGTLMVFFGNVDSSGIKHNIFNPPIIARYIRLHPTHYSIRSTLRMELMGCDLNSCSMPLGMESKAISDAQITASSYFTNMFATWSPSKARLHLQGRSNAWRPQVNNPKEWLQVDFQKTMKVTGVTTQGVKSLLTSMYVKEFLISSSQDGHQWTLFFQNGKVKVFQGNQDSFTPVVNSLDPPLLTRYLRIHPQSWVHQIALRMEVLGCEAQDLY
notes: also called factor VIII E113A; Factor VIII:E113A
